Reference: publication PMC10786891, “Massively parallel profiling of RNA-targeting CRISPR-Cas13d”
Numbering of substitutions follows the chain as printed. Names may count otherwise.

T1: EsCas13d, nuclease-dead (Eubacterium siraeum, UniProt B0MS50, R295A;H300A;R849A;H854A)
T1 sequence: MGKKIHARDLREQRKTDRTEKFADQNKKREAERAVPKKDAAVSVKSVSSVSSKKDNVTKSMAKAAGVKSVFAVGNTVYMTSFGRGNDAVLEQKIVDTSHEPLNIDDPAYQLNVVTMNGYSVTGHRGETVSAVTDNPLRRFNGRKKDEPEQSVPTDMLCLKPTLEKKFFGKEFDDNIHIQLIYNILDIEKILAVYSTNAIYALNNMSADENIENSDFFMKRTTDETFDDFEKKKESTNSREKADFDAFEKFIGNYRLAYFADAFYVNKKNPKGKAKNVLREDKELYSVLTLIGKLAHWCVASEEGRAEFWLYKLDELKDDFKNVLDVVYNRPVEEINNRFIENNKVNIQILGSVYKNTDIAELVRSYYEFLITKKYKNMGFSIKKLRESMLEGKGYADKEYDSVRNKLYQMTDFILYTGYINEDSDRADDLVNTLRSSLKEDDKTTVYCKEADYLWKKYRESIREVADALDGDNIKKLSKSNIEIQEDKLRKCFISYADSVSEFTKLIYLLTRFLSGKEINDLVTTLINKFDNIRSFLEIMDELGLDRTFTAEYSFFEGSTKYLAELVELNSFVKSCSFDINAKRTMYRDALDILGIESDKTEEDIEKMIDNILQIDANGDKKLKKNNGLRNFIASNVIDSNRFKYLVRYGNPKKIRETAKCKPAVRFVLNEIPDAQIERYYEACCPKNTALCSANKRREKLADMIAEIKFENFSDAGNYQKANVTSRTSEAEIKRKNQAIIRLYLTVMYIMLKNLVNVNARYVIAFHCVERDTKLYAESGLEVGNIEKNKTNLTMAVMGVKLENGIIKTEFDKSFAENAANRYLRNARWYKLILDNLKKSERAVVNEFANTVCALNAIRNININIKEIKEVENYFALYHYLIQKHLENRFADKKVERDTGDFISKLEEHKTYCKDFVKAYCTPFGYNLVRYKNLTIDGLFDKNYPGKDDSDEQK

B1: target 2 MT 5'PFS ACC 3'PFS UCC (mixed)
RNA 1: CACCCGUGCAAAAUUGCAGGGGUCUAAAACCUUCUCCAAAUUGUUUCAUCCU
RNA 2: GGGAAUGGAUCCACAUCUACGAAUUCACCAGGAUGAAACAAUUUGGAGAAGUCCAGAUCGGAAGAGCACACGU
B2: target 2 MT 5'PFS UUC 3'PFS ACA (mixed)
RNA 1: B1 RNA 1
RNA 2: B1 RNA 2 with A27U, C28U, U52A, C54A
B3: target 2 MT 5'PFS UUC 3'PFS ACC (mixed)
RNA 1: B1 RNA 1
RNA 2: B1 RNA 2 with A27U, C28U, U52A
B4: target 1 insU 3' of 12,insU 3' of 12 (mixed)
RNA 1: CACCCGUGCAAAAAUGCAGGGGUCUAAAACUGAGCGGAUAACCUCUCUAUGG
RNA 2: GGGAAUGGAUCCACAUCUACGAAUUCGUACCAUAGAGAGGUUUUAUCCGCUCACCGAGAUCGGAAGAGCACACGU
B5: target 2 MT 5'PFS GAG 3'PFS CGG (mixed)
RNA 1: B1 RNA 1
RNA 2: B1 RNA 2 with A27G, C28A, C29G, U52C, C53G, C54G
B6: target 2 MT 5'PFS CGA 3'PFS UUU (mixed)
RNA 1: B1 RNA 1
RNA 2: B1 RNA 2 with A27C, C28G, C29A, C53U, C54U
B7: target 2 MT 5'PFS CGA 3'PFS CUA (mixed)
RNA 1: B1 RNA 1
RNA 2: B1 RNA 2 with A27C, C28G, C29A, U52C, C53U, C54A
B8: target 2 MT 5'PFS GAG 3'PFS CGC (mixed)
RNA 1: B1 RNA 1
RNA 2: B1 RNA 2 with A27G, C28A, C29G, U52C, C53G
B9: target 2 MT 5'PFS GAG 3'PFS AGU (mixed)
RNA 1: B1 RNA 1
RNA 2: B1 RNA 2 with A27G, C28A, C29G, U52A, C53G, C54U
B10: target 2 MT 5'PFS GAG 3'PFS CGA (mixed)
RNA 1: B1 RNA 1
RNA 2: B1 RNA 2 with A27G, C28A, C29G, U52C, C53G, C54A
B11: target 2 MT 5'PFS UAG 3'PFS UCC (mixed)
RNA 1: B1 RNA 1
RNA 2: B1 RNA 2 with A27U, C28A, C29G
B12: target 2 MT 5'PFS GUA 3'PFS UGU (mixed)
RNA 1: B1 RNA 1
RNA 2: B1 RNA 2 with A27G, C28U, C29A, C53G, C54U
B13: target 2 MT 5'PFS GGA 3'PFS UAC (mixed)
RNA 1: B1 RNA 1
RNA 2: B1 RNA 2 with A27G, C28G, C29A, C53A
B14: target 2 MT 5'PFS CAG 3'PFS CAG (mixed)
RNA 1: B1 RNA 1
RNA 2: B1 RNA 2 with A27C, C28A, C29G, U52C, C53A, C54G
B15: target 1 A14U,G15A (mixed)
RNA 1: B4 RNA 1
RNA 2: GGGAAUGGAUCCACAUCUACGAAUUCGUACCAUAGAAUGGUUAUCCGCUCACCGAGAUCGGAAGAGCACACGU
B16: target 2 MT 5'PFS GGA 3'PFS UAA (mixed)
RNA 1: B1 RNA 1
RNA 2: B1 RNA 2 with A27G, C28G, C29A, C53A, C54A
B17: target 2 MT 5'PFS CAG 3'PFS CAA (mixed)
RNA 1: B1 RNA 1
RNA 2: B1 RNA 2 with A27C, C28A, C29G, U52C, C53A, C54A
B18: target 2 MT 5'PFS GGA 3'PFS UAG (mixed)
RNA 1: B1 RNA 1
RNA 2: B1 RNA 2 with A27G, C28G, C29A, C53A, C54G
B19: target 2 MT 5'PFS CAG 3'PFS CAC (mixed)
RNA 1: B1 RNA 1
RNA 2: B1 RNA 2 with A27C, C28A, C29G, U52C, C53A
B20: target 2 MT 5'PFS CGC 3'PFS AGU (mixed)
RNA 1: B1 RNA 1
RNA 2: B1 RNA 2 with A27C, C28G, U52A, C53G, C54U
B21: target 2 MT 5'PFS GGA 3'PFS UAU (mixed)
RNA 1: B1 RNA 1
RNA 2: B1 RNA 2 with A27G, C28G, C29A, C53A, C54U
B22: target 2 MT 5'PFS GCC 3'PFS CUA (mixed)
RNA 1: B1 RNA 1
RNA 2: B1 RNA 2 with A27G, U52C, C53U, C54A
B23: target 2 MT 5'PFS GGA 3'PFS CAG (mixed)
RNA 1: B1 RNA 1
RNA 2: B1 RNA 2 with A27G, C28G, C29A, U52C, C53A, C54G
B24: target 2 MT 5'PFS GCC 3'PFS CUC (mixed)
RNA 1: B1 RNA 1
RNA 2: B1 RNA 2 with A27G, U52C, C53U
B25: target 2 MT 5'PFS GGA 3'PFS CAA (mixed)
RNA 1: B1 RNA 1
RNA 2: B1 RNA 2 with A27G, C28G, C29A, U52C, C53A, C54A
B26: target 1 insG 3' of 9,insA 3' of 6 (mixed)
RNA 1: B4 RNA 1
RNA 2: B4 RNA 2 with U43A, U44G, A45U, U46C, C48A
B27: target 1 C2U,A14C (mixed)
RNA 1: B4 RNA 1
RNA 2: B15 RNA 2 with A37G, U38C, C50U
B28: target 1 del3,del11 (mixed)
RNA 1: B4 RNA 1
RNA 2: GGGAAUGGAUCCACAUCUACGAAUUCGUACCAUAGAGAGGUAUCCGCCACCGAGAUCGGAAGAGCACACGU
B29: target 2 MT 5'PFS GGA 3'PFS CAC (mixed)
RNA 1: B1 RNA 1
RNA 2: B1 RNA 2 with A27G, C28G, C29A, U52C, C53A
B30: target 2 MT 5'PFS GCC 3'PFS CUG (mixed)
RNA 1: B1 RNA 1
RNA 2: B1 RNA 2 with A27G, U52C, C53U, C54G
B31: target 2 MT 5'PFS UCG 3'PFS CCA (mixed)
RNA 1: B1 RNA 1
RNA 2: B1 RNA 2 with A27U, C29G, U52C, C54A
B32: target 2 MT 5'PFS GGA 3'PFS CAU (mixed)
RNA 1: B1 RNA 1
RNA 2: B1 RNA 2 with A27G, C28G, C29A, U52C, C53A, C54U
B33: target 2 MT 5'PFS GCC 3'PFS CUU (mixed)
RNA 1: B1 RNA 1
RNA 2: B1 RNA 2 with A27G, U52C, C53U, C54U
B34: target 2 MT 5'PFS GGG 3'PFS CAG (mixed)
RNA 1: B1 RNA 1
RNA 2: B1 RNA 2 with A27G, C28G, C29G, U52C, C53A, C54G
B35: target 2 MT 5'PFS GGG 3'PFS CAC (mixed)
RNA 1: B1 RNA 1
RNA 2: B1 RNA 2 with A27G, C28G, C29G, U52C, C53A
B36: target 2 MT 5'PFS GGG 3'PFS CAA (mixed)
RNA 1: B1 RNA 1
RNA 2: B1 RNA 2 with A27G, C28G, C29G, U52C, C53A, C54A
B37: target 2 MT 5'PFS GGG 3'PFS CAU (mixed)
RNA 1: B1 RNA 1
RNA 2: B1 RNA 2 with A27G, C28G, C29G, U52C, C53A, C54U

These binders were tested against T1, EsCas13d, nuclease-dead (assay: crRNA (strand 1, pre-loaded); Mg2+; 40 mM Tris-HCl pH 7.5, 150 mM NaCl, 6 mM MgCl2, 1 mM DTT, 0.1% Tween-20, 0.2 mg/ml BSA; 25 C; 10 min per concentration, then washed). Conditions: tags: His6-TwinStrep-SUMO cleaved; N-terminal SNAP kept (SNAP-Surface 488); label: 3' end held by stalled T7 RNA polymerase.
B1 showed a Kd of 5.5 ± 0.6 nM. In the case of B2, the Kd is reported as about 21 nM. Work on B3 yielded a Kd of about 16 nM. Work on B4 yielded a Kd of 10.1 ± 0.8 nM. B5 was tested, and the Kd was 5.8 ± 0.4 nM. B6 showed a Kd of 9.2 ± 1.7 nM. B7 was tested, and the Kd was 8.3 ± 1.3 nM. In the case of B8, the Kd is reported as 6.4 ± 0.4 nM. B9 showed a Kd of 9.1 ± 1.1 nM. In the case of B10, the Kd is reported as 4.9 ± 0.4 nM. B11 gave a Kd of 7.9 ± 0.8 nM. B12 showed a Kd of 15.2 ± 1.2 nM. B13 showed a Kd of 16.1 ± 2.7 nM. B14 was tested, and the Kd was 7.2 ± 1.2 nM. Work on B15 yielded a Kd of 64 ± 10 nM. For B16, the Kd was 5.6 ± 0.9 nM. With B17 the Kd was 6.6 ± 2.7 nM. B18 showed a Kd of 8.7 ± 0.7 nM. B19 gave a Kd of 5.6 ± 1.6 nM. With B20 the Kd was 4.3 ± 0.6 nM. Work on B21 yielded a Kd of 9.1 ± 1.1 nM. For B22, the Kd was 11.7 ± 2.4 nM. Binder B23 has a Kd of 11.5 ± 1.5 nM. B24 showed a Kd of 18.3 ± 2.3 nM. Work on B25 yielded a Kd of 6.7 ± 1.2 nM. Binder B26 has a Kd of 13.4 ± 0.7 nM. B27 gave a Kd of 80 ± 13 nM. B28 showed a Kd of 66 ± 16 nM. B29 showed a Kd of 9.4 ± 1 nM. For B30, the Kd was 12.7 ± 2.1 nM. B31 showed a Kd of 31 ± 11 nM. B32 was tested, and the Kd was 9.1 ± 1.1 nM. B33 showed a Kd of 10.5 ± 1.9 nM. B34 was tested, and the Kd was 9 ± 0.8 nM. Work on B35 yielded a Kd of 9.4 ± 1 nM. B36 gave a Kd of 4.9 ± 0.5 nM. Binder B37 has a Kd of 8 ± 0.8 nM.
